Source: the supplement of paper PMC10724198
± gives the standard deviation of the averaged measurements.

test system: Saccharomyces cerevisiae; assay: protein stability index of tFT-peptide fusion (C-terminal peptide) (PSI (0-1 scale)); higher = more stable (slower turnover); conditions: genetic background: wild type; temperature: 30 C
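Note: PSI is a weighted mean of sequencing reads over stability bins, variants kept only with over 10 reads, mCherry proximal and sfGFP distal, peptide attached via GGGS linker.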

Sequence	protein stability index
PGRHSVRFVFVC	0.208 ± 0.06
PKRNNRKAQQIS	0.405 ± 0.032
PPAPTPFPPSPR	0.593 ± 0.14
PPLPPPPASVPP	0.503 ± 0.016
PPPPPPPFLFFL	0.496 ± 0.061
PPTRVPVTLFLV	0.153 ± 0.013
PRLWLYCLIISL	0.2062 ± 0.00075
PVCRQVGVRLVA	0.456 ± 0.045
PVSEPCAWRIIA	0.1098 ± 0.00053
PWFCYVQLVVPV	0.309 ± 0.0036
PYPPTSLPPTWQ	0.726 ± 0.026
QGGTWKKLVKMI	0.226 ± 0.035
QNVKRIVRHMLT	0.374 ± 0.018
QVSHLFAAVQLA	0.4485 ± 0.00088
QWRMLTCLMERL	0.379 ± 0.012
RAPPPSSLLSPP	0.402 ± 0.013
RARRFGKWERSG	0.4453 ± 0.0039

Sequence	protein stability index
RDPLAPLLLAIP	0.698 ± 0.01
RDYIAAKLVVCG	0.35 ± 0.091
REAFVVLAVFFH	0.328 ± 0.04
RFCLPLRLPVTT	0.4497 ± 0.0012
RFFVLSFFFLVS	0.282 ± 0.024
RFGLPLLVVTWL	0.468 ± 0.043
RFHTFVFCLLCL	0.328 ± 0.06
RFLFYSFPIHTL	0.128 ± 0.0043
RFVLVFLVSLII	0.435 ± 0.035
RGLANLIVIVSS	0.374 ± 0.013
RGSLYLILVLIG	0.269 ± 0.026
RHTVFFCQLLLV	0.238 ± 0.003
RKNSQKILKLSG	0.502 ± 0.15
RKQLSCIMIWCK	0.298 ± 0.011
RLFLLIECSSGF	0.395 ± 0.045
RLGSLVPLAKQL	0.444 ± 0.059

test system: Saccharomyces cerevisiae; assay: as above; conditions: genetic background: cdc34-1; temperature: 37 C
Procedure: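 MPS profiling in S. cerevisiae of the tFT-X12 degron library: putative degron peptides plus stable controls, 12 aa, fused to the C-terminus of a sfGFP-mCherry timer. Cells are FACS-sorted into 8 mCherry/sfGFP bins and deep-sequenced. PSI runs from 0 (unstable) to 1 (stable). Backgrounds are wild type, das1Δ and doa10Δ at 30 °C, and wild type, das1Δ, cdc34-1 and cdc53-1 at 37 °C; 2-3 technical replicates each.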

Sequence	protein stability index
PGRHSVRFVFVC	0.349 ± 0.023
PKRNNRKAQQIS	0.61 ± 0.015
PPAPTPFPPSPR	0.687 ± 0.037
PPLPPPPASVPP	0.675 ± 0.022
PPPPPPPFLFFL	0.706 ± 0.018
PPTRVPVTLFLV	0.395 ± 0.013
PRLWLYCLIISL	0.173 ± 0.032
PVCRQVGVRLVA	0.582 ± 0.022
PVSEPCAWRIIA	0.374 ± 0.015
PWFCYVQLVVPV	0.226 ± 0.02
PYPPTSLPPTWQ	0.672 ± 0.043
QGGTWKKLVKMI	0.573 ± 0.05
QNVKRIVRHMLT	0.62 ± 0.056
QVSHLFAAVQLA	0.6103 ± 0.0049
QWRMLTCLMERL	0.446 ± 0.034
RAPPPSSLLSPP	0.6612 ± 0.0063
RARRFGKWERSG	0.644 ± 0.032

Sequence	protein stability index
RDPLAPLLLAIP	0.65 ± 0.038
RDYIAAKLVVCG	0.4103 ± 0.0032
REAFVVLAVFFH	0.199 ± 0.0062
RFCLPLRLPVTT	0.533 ± 0.028
RFFVLSFFFLVS	0.215 ± 0.013
RFGLPLLVVTWL	0.445 ± 0.0073
RFHTFVFCLLCL	0.407 ± 0.062
RFLFYSFPIHTL	0.442 ± 0.061
RFVLVFLVSLII	0.376 ± 0.039
RGLANLIVIVSS	0.572 ± 0.04
RGSLYLILVLIG	0.194 ± 0.0058
RHTVFFCQLLLV	0.291 ± 0.0074
RKNSQKILKLSG	0.6945 ± 0.0068
RKQLSCIMIWCK	0.361 ± 0.013
RLFLLIECSSGF	0.451 ± 0.005
RLGSLVPLAKQL	0.643 ± 0.11

same assay, conditions: genetic background: cdc53-1; temperature: 37 C

Sequence	protein stability index
PGRHSVRFVFVC	0.519 ± 0.046
PKRNNRKAQQIS	0.698 ± 0.038
PPAPTPFPPSPR	0.7216 ± 0.0033
PPLPPPPASVPP	0.719 ± 0.025
PPPPPPPFLFFL	0.795 ± 0.019
PPTRVPVTLFLV	0.673 ± 0.017
PRLWLYCLIISL	0.214 ± 0.016
PVCRQVGVRLVA	0.625 ± 0.052
PVSEPCAWRIIA	0.689 ± 0.026
PWFCYVQLVVPV	0.266 ± 0.0075
PYPPTSLPPTWQ	0.7459 ± 0.0012
QGGTWKKLVKMI	0.6963 ± 0.006
QNVKRIVRHMLT	0.691 ± 0.041
QVSHLFAAVQLA	0.687 ± 0.018
QWRMLTCLMERL	0.553 ± 0.063
RAPPPSSLLSPP	0.724 ± 0.016
RARRFGKWERSG	0.761 ± 0.025

Sequence	protein stability index
RDPLAPLLLAIP	0.717 ± 0.015
RDYIAAKLVVCG	0.425 ± 0.029
REAFVVLAVFFH	0.321 ± 0.054
RFCLPLRLPVTT	0.5626 ± 0.0042
RFFVLSFFFLVS	0.335 ± 0.069
RFGLPLLVVTWL	0.46 ± 0.0074
RFHTFVFCLLCL	0.438 ± 0.018
RFLFYSFPIHTL	0.6164 ± 0.0028
RFVLVFLVSLII	0.501 ± 0.0079
RGLANLIVIVSS	0.602 ± 0.0069
RGSLYLILVLIG	0.349 ± 0.087
RHTVFFCQLLLV	0.368 ± 0.0077
RKNSQKILKLSG	0.7724 ± 0.0073
RKQLSCIMIWCK	0.405 ± 0.012
RLFLLIECSSGF	0.491 ± 0.0068
RLGSLVPLAKQL	0.745 ± 0.03

same assay, conditions: genetic background: das1 deletion; temperature: 30 C

Sequence	protein stability index
PGRHSVRFVFVC	0.444 ± 0.019
PKRNNRKAQQIS	0.689 ± 0.019
PPAPTPFPPSPR	0.669 ± 0.034
PPLPPPPASVPP	0.641 ± 0.011
PPPPPPPFLFFL	0.643 ± 0.013
PPTRVPVTLFLV	0.619 ± 0.0097
PRLWLYCLIISL	0.186 ± 0.039
PVCRQVGVRLVA	0.525 ± 0.025
PVSEPCAWRIIA	0.6769 ± 0.0044
PWFCYVQLVVPV	0.232 ± 0.035
PYPPTSLPPTWQ	0.652 ± 0.0095
QGGTWKKLVKMI	0.643 ± 0.055
QNVKRIVRHMLT	0.658 ± 0.008
QVSHLFAAVQLA	0.555 ± 0.0081
QWRMLTCLMERL	0.472 ± 0.015
RAPPPSSLLSPP	0.6499 ± 0.0057
RARRFGKWERSG	0.639 ± 0.013

Sequence	protein stability index
RDPLAPLLLAIP	0.587 ± 0.011
RDYIAAKLVVCG	0.304 ± 0.03
REAFVVLAVFFH	0.226 ± 0.019
RFCLPLRLPVTT	0.461 ± 0.037
RFFVLSFFFLVS	0.224 ± 0.023
RFGLPLLVVTWL	0.394 ± 0.028
RFHTFVFCLLCL	0.432 ± 0.02
RFLFYSFPIHTL	0.572 ± 0.039
RFVLVFLVSLII	0.399 ± 0.029
RGLANLIVIVSS	0.397 ± 0.022
RGSLYLILVLIG	0.215 ± 0.024
RHTVFFCQLLLV	0.307 ± 0.012
RKNSQKILKLSG	0.64 ± 0.042
RKQLSCIMIWCK	0.204 ± 0.027
RLFLLIECSSGF	0.31 ± 0.046
RLGSLVPLAKQL	0.6729 ± 0.0062
